Assays:
[1] = target: the molecule itself; assay: turbidity (absorbance at 350 nm); His6-SUMO-tagged SAM domains, 10 µM, mixed with Zn2+ in 96-well plates (200 µl); absorbance after 10 min or every 10 s with 10 µM Zn2+; 0.5 M NaCl, 20 mM Tris/HCl pH 7.5
[2] = target: the molecule itself; assay: dynamic light scattering; isolated SAM domains (tag cleaved), 50 µM protein and 50 µM Zn2+, 1 h at room temperature, filtered 0.22 µm
[3] = target: the molecule itself; assay: crystal structure; Shank2-SAM WT (0.1 M Bis-Tris pH 5.5, 0.3 M Mg-formate) and L1800W (0.1 M Bis-Tris pH 5.5, 26% PEG 2000MME); sitting drop vapor diffusion; contacts between symmetry-related SAM domains in the crystal; no Zn2+ added
[4] = target: T1, His6-SUMO-tagged SH3 to PDZ domains of Shank2 (R520-D727), WT ( (human or rat cDNA cloned), UniProt Q9UPX8-3 520-727); assay: ITC; peptide in the syringe (200 µM; 1 mM for G643R), His6-SUMO SH3-PDZ protein in the cell (20-30 µM); 25 °C; 50 mM Tris-HCl pH 8.0, 100 mM NaCl, 1 mM EDTA; 1:1 binding model; conditions: both partners purified
T1 construct: Shank2, SH3 to PDZ domains, residues R520-D727; numbers count on: NM_012309.5 (isoform of 1849 residues); Cloned into pET-SUMO; also called His6-SUMO-SH3-PDZ fusion; Shank2 WT; source: E. coli BL21(DE3), purified (Ni-NTA agarose, G-25); not shown: His6, N-terminal, kept; SUMO, N-terminal, kept
T1 sequence (looked up): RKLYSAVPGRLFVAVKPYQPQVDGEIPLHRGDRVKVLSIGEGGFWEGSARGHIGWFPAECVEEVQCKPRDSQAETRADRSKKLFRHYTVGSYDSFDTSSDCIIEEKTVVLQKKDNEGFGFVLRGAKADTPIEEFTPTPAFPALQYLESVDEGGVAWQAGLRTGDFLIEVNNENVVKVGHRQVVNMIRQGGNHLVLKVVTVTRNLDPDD

[5] = target: T2, GST fusion protein of the GKAP C-terminus (50 C-terminal residues), P97836-4; assay: GST pulldown, Western blot quantification; conditions: chain shown with the change; 293T cell lysates; four independent experiments; parent: est. 3.8; read off a plot
T2 chain: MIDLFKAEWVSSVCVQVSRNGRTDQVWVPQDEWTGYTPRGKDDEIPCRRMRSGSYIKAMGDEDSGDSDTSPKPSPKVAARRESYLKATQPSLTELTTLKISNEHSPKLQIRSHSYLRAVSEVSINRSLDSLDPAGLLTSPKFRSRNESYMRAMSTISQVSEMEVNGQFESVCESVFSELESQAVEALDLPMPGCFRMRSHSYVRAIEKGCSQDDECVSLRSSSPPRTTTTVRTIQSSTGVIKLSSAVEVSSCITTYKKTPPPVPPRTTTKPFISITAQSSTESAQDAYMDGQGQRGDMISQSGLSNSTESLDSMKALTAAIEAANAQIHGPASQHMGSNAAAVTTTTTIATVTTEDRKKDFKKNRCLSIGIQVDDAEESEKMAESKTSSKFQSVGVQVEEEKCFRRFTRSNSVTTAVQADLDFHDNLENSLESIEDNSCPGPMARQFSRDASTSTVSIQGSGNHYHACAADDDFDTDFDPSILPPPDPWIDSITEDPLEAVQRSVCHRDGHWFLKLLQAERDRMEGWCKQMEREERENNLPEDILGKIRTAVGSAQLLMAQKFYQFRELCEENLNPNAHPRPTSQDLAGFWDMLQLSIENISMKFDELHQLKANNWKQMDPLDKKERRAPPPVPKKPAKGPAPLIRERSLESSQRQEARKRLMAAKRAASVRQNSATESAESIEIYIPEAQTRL

B1: His6-SUMO-tagged Shank2-SAM domain (T1780-R1849), WT (domain or fragment, UniProt Q9UPX8-3 1780-1849, looked up)
chain: TKPVHLWTKPDVADWLESLNLGEHKEAFMDNEIDGSHLPNLQKEDLIDLGVTRVGHRMNIERALKQLLDR
notes: Shank2 SAM domain, residues T1780-R1849; numbers count on: NM_012309.5 (isoform of 1849 residues); also called SUMO-SAM fusion; WT SAM domain; source: E. coli BL21(DE3), purified (Ni-NTA agarose, G-25); not shown: His6, N-terminal, kept; SUMO, N-terminal, kept
B1: binds [1].

B2: Shank2-SAM domain (T1780-R1849), WT, His-SUMO tag cleaved off (domain or fragment, UniProt Q9UPX8-3 1780-1849, looked up)
chain: TKPVHLWTKPDVADWLESLNLGEHKEAFMDNEIDGSHLPNLQKEDLIDLGVTRVGHRMNIERALKQLLDR
notes: Shank2 SAM domain, residues T1780-R1849; numbers count on: NM_012309.5 (isoform of 1849 residues); also called SAM-WT; Shank2-SAM WT; source: E. coli BL21(DE3), purified (Ni-NTA agarose), tag cleaved with SUMO protease and removed on Ni-NTA; not shown: His6, N-terminal, cleaved; SUMO, N-terminal, cleaved
B2: binds [2].

B3: His6-SUMO-tagged Shank2-SAM domain (T1780-R1849), L1800W (domain or fragment, UniProt Q9UPX8-3 1780-1849, looked up)
chain: TKPVHLWTKPDVADWLESLNWGEHKEAFMDNEIDGSHLPNLQKEDLIDLGVTRVGHRMNIERALKQLLDR
notes: Shank2 SAM domain, residues T1780-R1849, patient variant L1800W; numbers count on: NM_012309.5 (isoform of 1849 residues); also called L1800W mutant; p.L1800W SAM domain; source: E. coli BL21(DE3), purified (Ni-NTA agarose, G-25); not shown: His6, N-terminal, kept; SUMO, N-terminal, kept
B3: binds [1].

B4: Shank2-SAM domain (T1780-R1849), L1800W, His-SUMO tag cleaved off (domain or fragment, UniProt Q9UPX8-3 1780-1849, looked up)
chain: TKPVHLWTKPDVADWLESLNWGEHKEAFMDNEIDGSHLPNLQKEDLIDLGVTRVGHRMNIERALKQLLDR
notes: Shank2 SAM domain, residues T1780-R1849, patient variant L1800W; numbers count on: NM_012309.5 (isoform of 1849 residues); also called SAM-L1800W; L1800W mutant SAM domain; source: E. coli BL21(DE3), purified (Ni-NTA agarose), tag cleaved with SUMO protease and removed on Ni-NTA; not shown: His6, N-terminal, cleaved; SUMO, N-terminal, cleaved
B4: binds [3].

B5: synthetic peptide of the C-terminal PDZ ligand of CIRL1/latrophilin (peptide)
peptide: PGPDGDGQMQLVTSL
notes: CIRL1/latrophilin, C-terminal PDZ ligand (15 residues), free N- and C-terminus; also called CIRL1 peptide; source: synthetic peptide (Genscript)
In the case of B5, the “fold reduction of affinity against the GKAP peptide” value [4] is reported as about 40 fold.

B6: mCherry-tagged human Shank2a (WT), Q9UPX8-3 G643R (protein)
chain: MPRSPTSSEDEMAQSFSDYSVGSESDSSKEETIYDTIRATAEKPGGARTEESQGNTLVIRVVIHDLQQTKCIRFNPDATVWVAKQRILCTLTQSLKDVLNYGLFQPASNGRDGKFLDEERLLREYPQPVGEGVPSLEFRYKKRVYKQASLDEKQLAKLHTKTNLKKCMDHIQHRLVEKITKMLDRGLDPNFHDPETGETPLTLAAQLDDSVEVIKALKNGGAHLDFRAKDGMTALHKAARARNQVALKTLLELGASPDYKDSYGLTPLYHTAIVGGDPYCCELLLHEHATVCCKDENGWHEIHQACRYGHVQHLEHLLFYGADMSAQNASGNTALHICALYNQDSCARVLLFRGGNKELKNYNSQTPFQVAIIAGNFELAEYIKNHKETDIVPFREAPAYSNRRRRPPNTLAAPRVLLRSNSDNNLNASAPDWAVCSTATSHRSLSPQLLQQMPSKPEGAAKTIGSYVPGPRSRSPSLNRLGGAGEDGKRPQPLWHVGSPFALGANKDSLSAFEYPGPKRKLYSAVPGRLFVAVKPYQPQVDGEIPLHRGDRVKVLSIGEGGFWEGSARGHIGWFPAECVEEVQCKPRDSQAETRADRSKKLFRHYTVGSYDSFDTSSDCIIEEKTVVLQKKDNEGFGFVLRRAKADTPIEEFTPTPAFPALQYLESVDEGGVAWQAGLRTGDFLIEVNNENVVKVGHRQVVNMIRQGGNHLVLKVVTVTRNLDPDDTARKKAPPPPKRAPTTALTLRSKSMTSELEELVDKASVRKKKDKPEEIVPASKPSRAAENMAVEPRVATIKQRPSSRCFPAGSDMNSVYERQGIAVMTPTVPGSPKAPFLGIPRGTMRRQKSIDSRIFLSGITEEERQFLAPPMLKFTRSLSMPDTSEDIPPPPQSVPPSPPPPSPTTYNCPKSPTPRVYGTIKPAFNQNSAAKVSPATRSDTVATMMREKGMYFRRELDRYSLDSEDLYSRNAGPQANFRNKRGQMPENPYSEVGKIASKAVYVPAKPARRKGMLVKQSNVEDSPEKTCSIPIPTIIVKEPSTSSSGKSSQGSSMEIDPQAPEPPSQLRPDESLTVSSPFAAAIAGAVRDREKRLEARRNSPAFLSTDLGDEDVGLGPPAPRTRPSMFPEEGDFADEDSAEQLSSPMPSATPREPENHFVGGAEASAPGEAGRPLNSTSKAQGPESSPAVPSASSGTAGPGNYVHPLTGRLLDPSSPLALALSARDRAMKESQQGPKGEAPKADLNKPLYIDTKMRPSLDAGFPTVTRQNTRGPLRRQETENKYETDLGRDRKGDDKKNMLIDIMDTSQQKSAGLLMVHTVDATKLDNALQEEDEKAEVEMKPDSSPSEVPEGVSETEGALQISAAPEPTTVPGRTIVAVGSMEEAVILPFRIPPPPLASVDLDEDFIFTEPLPPPLEFANSFDIPDDRAASVPALSDLVKQKKSDTPQSPSLNSSQPTNSADSKKPASLSNCLPASFLPPPESFDAVADSGIEEVDSRSSSDHHLETTSTISTVSSISTLSSEGGENVDTCTVYADGQAFMVDKPPVPPKPKMKPIIHKSNALYQDALVEEDVDSFVIPPPAPPPPPGSAQPGMAKVLQPRTSKLWGDVTEIKSPILSGPKANVISELNSILQQMNREKLAKPGEGLDSPMGAKSASLAPRSPEIMSTISGTRSTTVTFTVRPGTSQPITLQSRPPDYESRTSGTRRAPSPVVSPTEMNKETLPAPLSAATASPSPALSDVFSLPSQPPSGDLFGLNPAGRSRSPSPSILQQPISNKPFTTKPVHLWTKPDVADWLESLNLGEHKEAFMDNEIDGSHLPNLQKEDLIDLGVTRVGHRMNIERALKQLLDR
B6 was tested, and the response (Precipitate / Input) [5] was 0.3.
